B1: KLHL12 (parent)
chain: SMTTPRCYVGATVLRGRLYAIAGY

Variants of: B1
Assay: protein stability index of a GFP-peptide fusion (GPS, HEK-293T) (PSI 1-6); higher = more stable
Details: c terminus: a fixed tail appended
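Also: lentivirally expressed fusions sorted by FACS into six bins by GFP to DsRed ratio, PSI derived from sequencing read proportions per bin multiplied by bin number.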

| Variant | protein stability index |
| --- | --- |
| SMTTPRCYVGATVLRERLYAIAGY | 1.25 |
| SMTTPRCYVGATVLRHRLYAIAGY | 1.98 |
| SMTTPRCYVGATVLRNRLYAIAGY | 1.98 |
| SMTTPRCYVGATVLRYRLYAIAGY | 2.42 |
| SMTTPRCYVGATVLRVRLYAIAGY | 3.05 |
| SMTTPRCYVGATVLRWRLYAIAGY | 1.48 |
| SMTTPRCYVGATVLRTRLYAIAGY | 2.04 |
| SMTTPRCYVGATVLRFRLYAIAGY | 2.91 |
| SMTTPRCYVGATVLRPRLYAIAGY | 2.19 |
| SMTTPRCYVGATVLRKRLYAIAGY | 1.77 |
| SMTTPRCYVGATVLRSRLYAIAGY | 2.46 |
| SMTTPRCYVGATVLRCRLYAIAGY | 2.22 |
| SMTTPRCYVGATVLRLRLYAIAGY | 2.05 |
| SMTTPRCYVGATVLRRRLYAIAGY | 2.39 |
| SMTTPRCYVGATVLRDRLYAIAGY | 1.58 |
| SMTTPRCYVGATVLRIRLYAIAGY | 3.21 |
| SMTTPRCYVGATVLRQRLYAIAGY | 1.45 |
| SMTTPRCYVGATVLRGFLYAIAGY | 3.17 |
| SMTTPRCYVGATVLRGILYAIAGY | 3.46 |
| SMTTPRCYVGATVLRGDLYAIAGY | 1.88 |
| SMTTPRCYVGATVLRGTLYAIAGY | 1.92 |
| SMTTPRCYVGATVLRGHLYAIAGY | 2.17 |
| SMTTPRCYVGATVLRGPLYAIAGY | 2.42 |
| SMTTPRCYVGATVLRGVLYAIAGY | 2.35 |

| Variant | protein stability index |
| --- | --- |
| SMTTPRCYVGATVLRGELYAIAGY | 1.68 |
| SMTTPRCYVGATVLRGQLYAIAGY | 1.85 |
| SMTTPRCYVGATVLRGGLYAIAGY | 2.27 |
| SMTTPRCYVGATVLRGSLYAIAGY | 3.1 |
| SMTTPRCYVGATVLRGMLYAIAGY | 3.27 |
| SMTTPRCYVGATVLRGNLYAIAGY | 2.17 |
| SMTTPRCYVGATVLRGYLYAIAGY | 2.26 |
| SMTTPRCYVGATVLRGALYAIAGY | 1.73 |
| SMTTPRCYVGATVLRGCLYAIAGY | 2.04 |
| SMTTPRCYVGATVLRGRLYQIAGY | 2.45 |
| SMTTPRCYVGATVLRGRLYDIAGY | 1.48 |
| SMTTPRCYVGATVLRGRLYMIAGY | 2.23 |
| SMTTPRCYVGATVLRGRLYVIAGY | 3.5 |
| SMTTPRCYVGATVLRGRLYRIAGY | 1.34 |
| SMTTPRCYVGATVLRGRLYPIAGY | 2.26 |
| SMTTPRCYVGATVLRGRLYEIAGY | 1.76 |
| SMTTPRCYVGATVLRGRLYWIAGY | 3.09 |
| SMTTPRCYVGATVLRGRLYGIAGY | 2.11 |
| SMTTPRCYVGATVLRGRLYHIAGY | 1.18 |
| SMTTPRCYVGATVLRGRLYIIAGY | 2.3 |
| SMTTPRCYVGATVLRGRLYYIAGY | 2.41 |
| SMTTPRCYVGATVLRGRLYKIAGY | 3.06 |
| SMTTPRCYVGATVLRGRLYCIAGY | 2.26 |
| SMTTPRCYVGATVLRGRLYFIAGY | 2.38 |

| Variant | protein stability index |
| --- | --- |
| SMTTPRCYVGATVLRGRLYTIAGY | 1.01 |
| SMTTPRCYVGATVLRGRLYNIAGY | 1.72 |
| SMTTPRCYVGCTVLRGRLYAIAGY | 2.29 |
| SMTTPRCYVGSTVLRGRLYAIAGY | 1.04 |
| SMTTPRCYVGMTVLRGRLYAIAGY | 2 |
| SMTTPRCYVGETVLRGRLYAIAGY | 1.5 |
| SMTTPRCYVGHTVLRGRLYAIAGY | 1.8 |
| SMTTPRCYVGNTVLRGRLYAIAGY | 1.5 |
| SMTTPRCYVGGTVLRGRLYAIAGY | 1.33 |
| SMTTPRCYVGPTVLRGRLYAIAGY | 2.17 |
| SMTTPRCYVGYTVLRGRLYAIAGY | 2.99 |
| SMTTPRCYVGFTVLRGRLYAIAGY | 2.01 |
| SMTTPRCYVGKTVLRGRLYAIAGY | 2.19 |
| SMTTPRCYVGQTVLRGRLYAIAGY | 2.32 |
| SMTTPRCYVGDTVLRGRLYAIAGY | 1.42 |
| SMTTPRCYVGTTVLRGRLYAIAGY | 1.49 |
| SMTTPRCYVGRTVLRGRLYAIAGY | 3.02 |
| SMTTPRCYVGATVLRGRLMAIAGY | 1.79 |
| SMTTPRCYVGATVLRGRLEAIAGY | 2.19 |
| SMTTPRCYVGATVLRGRLCAIAGY | 2.91 |
| SMTTPRCYVGATVLRGRLIAIAGY | 3.51 |
| SMTTPRCYVGATVLRGRLRAIAGY | 1.77 |
| SMTTPRCYVGATVLRGRLWAIAGY | 3.23 |
| SMTTPRCYVGATVLRGRLNAIAGY | 2.66 |

| Variant | protein stability index |
| --- | --- |
| SMTTPRCYVGATVLRGRLGAIAGY | 2.81 |
| SMTTPRCYVGATVLRGRLTAIAGY | 2.02 |
| SMTTPRCYVGATVLRGRLFAIAGY | 2.02 |
| SMTTPRCYVGATVLRGRLDAIAGY | 1.99 |
| SMTTPRCYVGATVLRGRLKAIAGY | 1.79 |
| SMTTPRCYVGATVLRGRLAAIAGY | 1.65 |
| SMTTPRCYVGATVLRGRLHAIAGY | 1.72 |
| SMTTPRCYVGATVLRGRLSAIAGY | 2 |
| SMTTPRCYVGATVLRGRLQAIAGY | 2.11 |
| SMTTPRCYVGATVLRGRLPAIAGY | 2.22 |
| SMTTPRCYVGATVLRGRLLAIAGY | 2.15 |
| SMTTPRCYVGATVLEGRLYAIAGY | 2.11 |
| SMTTPRCYVGATVLKGRLYAIAGY | 2.57 |
| SMTTPRCYVGATVLHGRLYAIAGY | 2.64 |
| SMTTPRCYVGATVLMGRLYAIAGY | 1.59 |
| SMTTPRCYVGATVLIGRLYAIAGY | 2.18 |
| SMTTPRCYVGATVLVGRLYAIAGY | 3.43 |
| SMTTPRCYVGATVLDGRLYAIAGY | 2.78 |
| SMTTPRCYVGATVLLGRLYAIAGY | 2.21 |
| SMTTPRCYVGATVLPGRLYAIAGY | 1.88 |
| SMTTPRCYVGATVLYGRLYAIAGY | 3.51 |
| SMTTPRCYVGATVLWGRLYAIAGY | 1.66 |
| SMTTPRCYVGATVLAGRLYAIAGY | 2.33 |
| SMTTPRCYVGATVLSGRLYAIAGY | 1.63 |

| Variant | protein stability index |
| --- | --- |
| SMTTPRCYVGATVLNGRLYAIAGY | 1.95 |
| SMTTPRCYVGATVLQGRLYAIAGY | 1.46 |
| SMTTPRCYVGATVLCGRLYAIAGY | 3.81 |
| SMTTPRCYVGATVLTGRLYAIAGY | 2.62 |
| SMTTPRCYVGATVLGGRLYAIAGY | 2.98 |
| SMTTPRCYVGATMLRGRLYAIAGY | 1.73 |
| SMTTPRCYVGATGLRGRLYAIAGY | 2.24 |
| SMTTPRCYVGATFLRGRLYAIAGY | 1.85 |
| SMTTPRCYVGATALRGRLYAIAGY | 1.83 |
| SMTTPRCYVGATNLRGRLYAIAGY | 1.81 |
| SMTTPRCYVGATELRGRLYAIAGY | 2.69 |
| SMTTPRCYVGATDLRGRLYAIAGY | 1.28 |
| SMTTPRCYVGATQLRGRLYAIAGY | 2.85 |
| SMTTPRCYVGATRLRGRLYAIAGY | 1.74 |
| SMTTPRCYVGATPLRGRLYAIAGY | 1.95 |
| SMTTPRCYVGATLLRGRLYAIAGY | 3.54 |
| SMTTPRCYVGATYLRGRLYAIAGY | 2.03 |
| SMTTPRCYVGATKLRGRLYAIAGY | 1.96 |
| SMTTPRCYVGATCLRGRLYAIAGY | 1.58 |
| SMTTPRCYVGATHLRGRLYAIAGY | 3.25 |
| SMTTPRCYVGATTLRGRLYAIAGY | 1.03 |
| SMTTPRCYVGATSLRGRLYAIAGY | 1.88 |
| SMTTPRCYVGATILRGRLYAIAGY | 1.84 |
| SMTTPRCYVGAIVLRGRLYAIAGY | 2.46 |

| Variant | protein stability index |
| --- | --- |
| SMTTPRCYVGACVLRGRLYAIAGY | 2.41 |
| SMTTPRCYVGAGVLRGRLYAIAGY | 1.18 |
| SMTTPRCYVGAAVLRGRLYAIAGY | 1.68 |
| SMTTPRCYVGAPVLRGRLYAIAGY | 1.94 |
| SMTTPRCYVGALVLRGRLYAIAGY | 2.77 |
| SMTTPRCYVGAMVLRGRLYAIAGY | 3.47 |
| SMTTPRCYVGADVLRGRLYAIAGY | 1.85 |
| SMTTPRCYVGAVVLRGRLYAIAGY | 3.43 |
| SMTTPRCYVGANVLRGRLYAIAGY | 2.87 |
| SMTTPRCYVGASVLRGRLYAIAGY | 1.63 |
| SMTTPRCYVGAQVLRGRLYAIAGY | 1.92 |
| SMTTPRCYVGAFVLRGRLYAIAGY | 2.4 |
| SMTTPRCYVGAKVLRGRLYAIAGY | 2.48 |
| SMTTPRCYVGAYVLRGRLYAIAGY | 4.56 |
| SMTTPRCYVGARVLRGRLYAIAGY | 2.21 |
| SMTTPRCYVGAEVLRGRLYAIAGY | 1.1 |
| SMTTPRCYVSATVLRGRLYAIAGY | 1.02 |
| SMTTPRCYVPATVLRGRLYAIAGY | 1.91 |
| SMTTPRCYVWATVLRGRLYAIAGY | 1.11 |
| SMTTPRCYVTATVLRGRLYAIAGY | 3.52 |
| SMTTPRCYVYATVLRGRLYAIAGY | 2.21 |
| SMTTPRCYVGATVLRGRLYAGAGY | 1.78 |
| SMTTPRCYVGATVLRGRLYAAAGY | 2.65 |
| SMTTPRCYVGATVLRGRLYALAGY | 2.73 |

| Variant | protein stability index |
| --- | --- |
| SMTTPRCYVGATVLRGRLYADAGY | 1.46 |
| SMTTPRCYVGATVLRGRLYAFAGY | 2.81 |
| SMTTPRCYVGATVLRGRLYACAGY | 1.37 |
| SMTTPRCYVGATVLRGRLYAPAGY | 2.29 |
| SMTTPRCYVGATVLRGRLYAHAGY | 1.59 |
| SMTTPRCYVGATVLRGRLYAKAGY | 1.57 |
| SMTTPRCYVGATVLRGRLYAEAGY | 1.78 |
| SMTTPRCYVGATVLRGRLYAMAGY | 1.28 |
| SMTTPRCYVGATVLRGRLYANAGY | 1.81 |
| SMTTPRCYVGATVLRGRDYAIAGY | 1.94 |
| SMTTPRCYVGATVLRGRTYAIAGY | 1.78 |
| SMTTPRCYVGATVLRGREYAIAGY | 1.95 |
| SMTTPRCYVGATVLRGRPYAIAGY | 1.87 |
| SMTTPRCYVGATVLRGRHYAIAGY | 2.1 |
| SMTTPRCYVGATVLRGRQYAIAGY | 1.81 |
| SMTTPRCYVGATVLRGRRYAIAGY | 1.9 |
| SMTTPRCYVGATVLRGRMYAIAGY | 1.72 |
| SMTTPRCYVGATVLRGRFYAIAGY | 2.67 |
| SMTTPRCYVGATVLRGRVYAIAGY | 2.08 |
| SMTTPRCYVGATVLRGRYYAIAGY | 2.68 |
| SMTTPRCYVGATVLRGRNYAIAGY | 2 |
| SMTTPRCYVGATVLRGRCYAIAGY | 2.93 |
| SMTTPRCYVGATVLRGRKYAIAGY | 1.75 |
| SMTTPRCYVGATVLRGRSYAIAGY | 1.36 |

| Variant | protein stability index |
| --- | --- |
| SMTTPRCYVGATVLRGRAYAIAGY | 1.49 |
| SMTTPRCYVGATVLRGRGYAIAGY | 1.7 |
| SMTTPRCYVGATVLRGRIYAIAGY | 1.68 |
| SMTTPRCYVGATVHRGRLYAIAGY | 1.62 |
| SMTTPRCYVGATVDRGRLYAIAGY | 1.58 |
| SMTTPRCYVGATVSRGRLYAIAGY | 1.9 |
| SMTTPRCYVGATVWRGRLYAIAGY | 3.9 |
| SMTTPRCYVGATVTRGRLYAIAGY | 2.5 |
| SMTTPRCYVGATVPRGRLYAIAGY | 2.01 |
| SMTTPRCYVGATVFRGRLYAIAGY | 1.77 |
| SMTTPRCYVGATVNRGRLYAIAGY | 1.17 |
| SMTTPRCYVGATVARGRLYAIAGY | 1.79 |
| SMTTPRCYVGATVGRGRLYAIAGY | 1.55 |
| SMTTPRCYVGATVYRGRLYAIAGY | 3.61 |
| SMTTPRCYVGATVKRGRLYAIAGY | 1.93 |
| SMTTPRCYVGATVQRGRLYAIAGY | 2.76 |
| SMTTPRCYVGATVRRGRLYAIAGY | 1.99 |
| SMTTPRCYVGATVCRGRLYAIAGY | 2.48 |
| SMTTPRCYVGATVERGRLYAIAGY | 1.93 |
| SMTTPRCYVGATVIRGRLYAIAGY | 1.99 |
